Experimental data as given in the supplement of paper PMC12764529.
± gives the half width of the 95% confidence interval.

Assays:
[1] = folding stability dG unfold from trypsin proteolysis; higher = more stable
In short: (§1)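 Only designs with AlphaFold2 dimer inter-PAE above 15 were retained; each was a mini-protein under 80 residues with no cysteine, in a PA-tagged cDNA display construct. After digestion with trypsin and chymotrypsin and sequencing, K50 was inferred by Bayesian fitting of counts, and unfolding free energy was derived per protease or combined against a sequence-predicted unfolded-state K50 and a shared folded-state K50.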

[2] = folding stability dG unfold (combined trypsin and chymotrypsin); higher = more stable
In short: as §1

[3] = folding stability dG unfold from chymotrypsin proteolysis; higher = more stable
In short: as §1

Sequence	folding stability dG unfold [1]	folding stability dG unfold [2]	folding stability dG unfold [3]
SKLKPGDIVKLENGEYYRIKKIEISYDKETKEFTIKAEIEPAPPVETETETKTNADGSTETVTKTKVELPSA [r9_914_TrROS_Hall]	0.701 ± 0.061 kcal/mol	1.95 ± 0.042 kcal/mol	2.366 ± 0.021 kcal/mol
SAGGKMTLKDIEIIEVIEKDGEIEVVLIRNKKTNKVIAIPREDLEKLLSLPEDVEVVRLRIKPGEKLSAGGS [r16_61_TrROS_Hall]	1.3 ± 0.07 kcal/mol	1.32 ± 0.18 kcal/mol	1.34 ± 0.15 kcal/mol
AKLPEGAKVVIEVRRADDGETRTITLDDDVTITITYDKDTGKVEVRAYVFDKNGKLVAEETLTLSLEELLSS [r1_380_TrROS_Hall]	1.77 ± 0.027 kcal/mol	3.1 ± 0.067 kcal/mol	3.508 ± 0.017 kcal/mol
SKATVLPNGEVVVTAEATFTLPDGTKVTVRVEVRIGPDGTLRPGVTVTVEPVPPPEKPLNIDFDPVTLPKSA [r9_1168_TrMRF]	0.969 ± 0.13 kcal/mol	2.67 ± 0.33 kcal/mol	2.91 ± 0.21 kcal/mol
GMAPKTYTKEVEIKDSSGKPIKYKVTVTETALPDGSSESTITLTDPNSSKTTTINLSSPGKGLTPDDKILLS [r1_14_JUSTAS]	0.562 ± 0.019 kcal/mol	0.899 ± 0.075 kcal/mol	1.09 ± 0.087 kcal/mol
SAGGPPGEEIPIMVRIKMRNPENGEEMELPITHTVKSKEDLKWAKKLVDEIAEEFREQGMKDVEIEIFSAGG [r13_360_TrROS]	0.47 ± 0.15 kcal/mol	0.908 ± 0.15 kcal/mol	1.07 ± 0.21 kcal/mol
SAGGSAGGSGWYFHFEVSIWVMEFKYPGPDGKTMTMWFIMIEIKIEIVPPPPITPEDAAKMNGSAGGSAGGS [r12_1060_TrROS]	2.66 ± 0.06 kcal/mol	3.76 ± 0.16 kcal/mol	4.24 ± 0.087 kcal/mol
SKAEILEAPAVFNPESESATLYYLVKVTFPDPSVKLIPGVFPADYTPEQAAEEILARFKSLGLESATITPSA [r9_1203_TrMRF]	1.5 ± 0.15 kcal/mol	1.57 ± 0.19 kcal/mol	1.46 ± 0.12 kcal/mol
SAGGPPPDTTVTVTLTRTTPTQWLIEFPATGEVREIPRDPAASDEEAKELVKELAKEEGYNVNINLTSAGGS [r16_446_JUSTAS]	1.05 ± 0.081 kcal/mol	0.812 ± 0.3 kcal/mol	0.438 ± 0.29 kcal/mol
SAGGSAGGSAKPDKPIKVKVTLYNPATGEKTVVEVEVPPHVKPEEVAEALRKEFGAARVEVESAGGSAGGSA [r18_58_TrMRF]	3.05 ± 0.086 kcal/mol	3.08 ± 0.057 kcal/mol	3.112 ± 0.03 kcal/mol
SAGGGTEIEYNPETGEIIVKVNPLIPYPFEPGSETIPLPFEGDPEAAEQEIRDLIEEHPDASFDIKPSSAGG [r13_284_TrMRF]	0.638 ± 0.085 kcal/mol	0.0628 ± 0.061 kcal/mol	-1.32 ± 0.17 kcal/mol
SAGGMTVKITIEVEEPGKTAEELAEELARELEKAGFKVEVVSVEVEEVDGRLIVTIEVKVDSEEALKASAGG [r13_979_TrROS_Hall]	2.36 ± 0.055 kcal/mol	2.52 ± 0.058 kcal/mol	2.55 ± 0.077 kcal/mol
SAGGKTKTYTFVLEDPVKKGIPVLAKVTVTYEPDENGNEVAPANVVVYYPDGKPEVLKVDVSNITGTGSAGG [r13_787_TrMRF]	0.123 ± 0.13 kcal/mol	0.737 ± 0.06 kcal/mol	1.11 ± 0.053 kcal/mol
SAGGSAGGSAEIKIEYTLAPDGTLYVKVEIPNPETGETLVLEGPFDSLEEAIEVAKELEKESAGGSAGGSAG [r3_174_TrMRF]	2.29 ± 0.23 kcal/mol	2.68 ± 0.18 kcal/mol	2.77 ± 0.056 kcal/mol
SAGMATTTELPNGFLTTYEDGTTSFIPAEPPEVPVTTVPVTSPEEAAAAVAAAGLSVEVVTADSVTAPASAG [r5_328_JUSTAS]	2.06 ± 0.091 kcal/mol	1.63 ± 0.07 kcal/mol	1.2 ± 0.027 kcal/mol
SAGGSAGGSAGGVIKTFTSPDNKKYTVTVNKDGSVTVETFDPETGKKSISTVSAAEASLSAGGSAGGSAGGS [r10_838_JUSTAS]	1.32 ± 0.029 kcal/mol	1.18 ± 0.063 kcal/mol	0.828 ± 0.066 kcal/mol
SMETVELRVRVRVFNPETGELVEEIEVTVTLPKGMTLEEALRRAREALREALERLLRPPEPVLDEDGRLVSA [r9_454_TrROS_Hall]	3.66 ± 0.12 kcal/mol	3.99 ± 0.14 kcal/mol	4.26 ± 0.19 kcal/mol
SAGGSAETVVVRIEVRDPETGETLELEIEVRRDMTEEELRELAEELARALKEAGYEVRVEVVRLPPSAGGSA [r15_268_TrROS_Hall]	3.11 ± 0.073 kcal/mol	2.61 ± 0.091 kcal/mol	2.26 ± 0.11 kcal/mol
SARTLTITVPPGYRARVVVTLENGEPLELEVPPSESVTLTIPPGVPALVRVEVFYPDGSVGEFEVEVDDSAG [r14_568_TrMRF]	4.65 ± 0.25 kcal/mol	4.79 ± 0.2 kcal/mol	4.76 ± 0.14 kcal/mol
SAGGSAGGSAGGSDRVEVELIFKFPNGFYVVIKWEIDPDEPGKIEMEIAIFDPDGKPIWSAGGSAGGSAGGS [r4_297_TrROS]	3.35 ± 0.2 kcal/mol	4.63 ± 0.19 kcal/mol	4.69 ± 0.12 kcal/mol
SAGGSPEQARRWAKYIAETRAGENGWEVEDVEVEQHPGGYVEASIDVQFPDGKKREITITIPPGDPFSAGGS [r8_175_TrROS]	-0.149 ± 0.54 kcal/mol	-0.447 ± 0.55 kcal/mol	-0.361 ± 0.81 kcal/mol

Sequence	folding stability dG unfold [1]	folding stability dG unfold [2]	folding stability dG unfold [3]
SAGGSAKPNEKVKIRIINEDGEEIEIEVEVKPGEKIYLLENGEEVEVKPGEKIEFPPGAKILVEKVSAGGSA [r15_152_TrROS_Hall]	1.11 ± 0.034 kcal/mol	1.1 ± 0.12 kcal/mol	1.07 ± 0.02 kcal/mol
SAGGSAGGPSLRLTFPFPPGFSVTIELFPDGTARITIHNSDGSLLLSFSIPLPPVIPPDPSSLLSAGGSAGG [r6_238_TrMRF]	3.33 ± 0.17 kcal/mol	2.84 ± 0.38 kcal/mol	2.63 ± 0.084 kcal/mol
SAGGSAGGSAGKRYTFFIPVPPDEMTPEDLVDWIEKIFPDFKGKEIKVEVMPDGYVRIKIEYSAGGSAGGSA [r18_65_TrROS]	3.08 ± 0.069 kcal/mol	3.56 ± 0.097 kcal/mol	3.89 ± 0.044 kcal/mol
SAGGSAGGSAGGMILRDPNRDIWTADFPDSSGNLVSSREFPPGEIEEVLAEGNVSAEVLPSAGGSAGGSAGG [r11_159_JUSTAS]	0.362 ± 0.015 kcal/mol	0.315 ± 0.043 kcal/mol	0.297 ± 0.059 kcal/mol
SAGGSAGGSAGGIPPDVKVKPVATVNLTAEVEVTVLGPEGGPTFTVKVEVKVVFAESTDSAGGSAGGSAGGS [r10_758_TrMRF]	1.51 ± 0.37 kcal/mol	2.11 ± 0.26 kcal/mol	2.57 ± 0.24 kcal/mol
SKTIEIEIRVGGELYRIKIKVKRKGEPEEEIELTVPAGMSIEEIAARLKELYPDLKVEIVEIERLPPPEPSA [r9_364_TrROS_Hall]	2.98 ± 0.072 kcal/mol	3.86 ± 0.082 kcal/mol	4.17 ± 0.11 kcal/mol
SAGGSAGGSADVVVEVEYDSSGDYVLVKVKLKEKEIPFKFSKSLSPEEVIEKAKELAKKAAKSAGGSAGGSA [r18_266_TrMRF]	0.597 ± 0.098 kcal/mol	0.677 ± 0.13 kcal/mol	0.584 ± 0.27 kcal/mol
SAGGSAGGSAGGPEKGKWKLVLVTMTIPLPPGASIPIPNGVWIYYTDGKIEIWFLMWVPDSAGGSAGGSAGG [r7_506_TrROS]	3.33 ± 0.15 kcal/mol	4.8 ± 0.21 kcal/mol	5.07 ± 0.11 kcal/mol
SAGGSAGGSNRLVFRFGGYYYVVEIKPPNGKEETIMMPPDDIDDLPKNWKVEVEPIKPGQPIPSAGGSAGGS [r12_419_TrROS]	1.09 ± 0.12 kcal/mol	1.18 ± 0.2 kcal/mol	1.46 ± 0.23 kcal/mol
SAGGSAGGSAGKAVFIRELENGAIVLAVPFPDSVRLRVFPLTPGGEVESVEEFTLAPEELSAGGSAGGSAGG [r11_88_TrMRF]	-0.0256 ± 0.16 kcal/mol	0.591 ± 0.08 kcal/mol	0.842 ± 0.088 kcal/mol
SAGGSAGGSSLTVTYDPSTGTLTITVPEDQTSVKIKYGDKTYTVPLPPGQTFTVPANTFTLESSAGGSAGGS [r20_26_TrMRF]	0.745 ± 0.071 kcal/mol	1.29 ± 0.11 kcal/mol	1.54 ± 0.08 kcal/mol
SAGKEKVLVIPVKVKPGEKIVVKVPSNSKILIIDLESGEIYEIDVPENVEPVFILPENKEYLIAVVFKSAGG [r19_78_TrMRF]	2.66 ± 0.081 kcal/mol	3.38 ± 0.11 kcal/mol	3.92 ± 0.086 kcal/mol
SAGGSAGGSAGGGMVLKTEPVVITSTSTAPTEDGKWITTTSTLVVTKELILPSTLPGLLSAGGSAGGSAGGS [r10_1133_JUSTAS]	0.173 ± 0.028 kcal/mol	0.34 ± 0.096 kcal/mol	0.276 ± 0.11 kcal/mol
SAGGSAGGSAGWRAKVYPPGNGEPIGTIEIPKDWTPSQIKEIADDLQKKFPPGWRVEIEDSAGGSAGGSAGG [r11_1081_TrROS]	1.72 ± 0.051 kcal/mol	1.38 ± 0.12 kcal/mol	0.904 ± 0.093 kcal/mol
SAGASVSRPVSADEEFSVTVPPEPVTLEVTVYRPDGSVLSSRTIPVGPNTTVTLNVPDPDWSVSFSPVASAG [r5_797_JUSTAS]	-0.0205 ± 0.2 kcal/mol	0.232 ± 0.2 kcal/mol	0.082 ± 0.18 kcal/mol
SAGGSAGGSAGMVVTINDPKKAKKIDENSVITIPDGKKYKVVKVEVDEKNGYWTLTIEPLSAGGSAGGSAGG [r11_316_JUSTAS]	1.09 ± 0.055 kcal/mol	2.18 ± 0.15 kcal/mol	2.55 ± 0.051 kcal/mol
SAGGGEYKVEVVTFPDGSKVVLVTLPNGDKVALPVPVTRTVPVLDKTGPLKKPGPVEVAALVLVSSNGSAGG [r13_236_TrMRF]	0.636 ± 0.035 kcal/mol	0.956 ± 0.076 kcal/mol	1.17 ± 0.12 kcal/mol
SAGGSAGGSAKIKIKVKPGEKVRIYNKKTKKEIAEVEVVEVKEGKIVVKLKNGKLYEIEIEPSAGGSAGGSA [r18_363_TrROS_Hall]	1.67 ± 0.033 kcal/mol	2.18 ± 0.052 kcal/mol	2.36 ± 0.06 kcal/mol
SAGGMTTTVELELEDPVNLGVPVRVEATVTYEKDPNGNPVAKAEITTTYPDGKEEKTTIPVSELKGLGSAGG [r13_787_JUSTAS]	0.294 ± 0.059 kcal/mol	-0.00381 ± 0.17 kcal/mol	-0.603 ± 0.13 kcal/mol
SAGGIELKINIQMPAEEAVEFIRNFIEELGYEIEDIEVERDPENGMVSVPIEFEIKPVPPVDPEDQKSAGGS [r16_584_TrROS]	0.144 ± 0.076 kcal/mol	0.315 ± 0.19 kcal/mol	0.166 ± 0.26 kcal/mol
SAGGMQKAIDIAKELGWKILDVDPEKKVVKVKPPDSDVEVTITVDDESTVTITTKNPGSDVVETIPESAGGS [r16_197_JUSTAS]	1.38 ± 0.091 kcal/mol	1.4 ± 0.16 kcal/mol	1.47 ± 0.056 kcal/mol
